From publication PMC11297322, “MEILB2-BRME1 forms a V-shaped DNA clamp upon BRCA2-binding in meiotic recombination” (Nature Communications, 2023) come the findings set out here.

The target of series [1] is T1, BRCA2MBD;MEILB2 (22-338);BRME1MBD (Mus musculus;Mus musculus;Mus musculus) (UniProt P97929+Q9D4G2+Q6DIA7).
T1 sequence 1: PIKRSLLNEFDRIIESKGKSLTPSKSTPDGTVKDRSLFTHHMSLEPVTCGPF
T1 sequence 2: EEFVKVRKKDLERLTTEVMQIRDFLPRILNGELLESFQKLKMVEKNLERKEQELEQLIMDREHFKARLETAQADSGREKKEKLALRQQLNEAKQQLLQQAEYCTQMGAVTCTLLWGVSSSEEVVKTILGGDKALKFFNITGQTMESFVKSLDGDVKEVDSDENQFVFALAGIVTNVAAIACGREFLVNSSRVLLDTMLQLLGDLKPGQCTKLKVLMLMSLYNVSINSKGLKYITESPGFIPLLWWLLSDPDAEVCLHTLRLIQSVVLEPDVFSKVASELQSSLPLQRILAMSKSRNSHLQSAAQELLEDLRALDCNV
T1 sequence 3: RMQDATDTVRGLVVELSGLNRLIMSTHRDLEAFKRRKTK
Description: EMSA. To be noted: EMSA: 20 mM HEPES pH 7.5, 325 mM KCl, 60 min room temperature; 0.4% agarose, 0.5x TBE pH 8.0, 4 C; 50 uM DNA per bp/base (qualitative). Pulldown: 20 mM HEPES ….

In series [2] the target is T2, BRCA2MBD;MEILB2 K26E;BRME1MBD K26E (Mus musculus;Mus musculus;Mus musculus) (UniProt P97929+Q9D4G2+Q6DIA7).
T2 sequence 1: T1 sequence 1
T2 sequence 2: T1 sequence 2 with K5E
T2 sequence 3: T1 sequence 3
Description: EMSA. Conditions: EMSA: 20 mM HEPES pH 7.5, 325 mM KCl, 60 min room temperature; 0.4% agarose, 0.5x TBE pH 8.0, 4 C; 50 uM DNA per bp/base (qualitative). Pulldown: 20 mM HEPES …. (In general: A gel shift assay detects complexes by their altered migration in electrophoresis.)

The target of series [3] is T3, BRCA2MBD;MEILB2 (22-338);BRME1MBD (Mus musculus;Mus musculus;Mus musculus, UniProt P97929;Q9D4G2;Q6DIA7 2232-2283;22-338;540-578, ||).
T3 sequence 1: T1 sequence 1
T3 sequence 2: T1 sequence 2
T3 sequence 3: T1 sequence 3
As to the kind of experiment: EMSA; EMSA: 20 mM HEPES pH 7.5, 325 mM KCl, 60 min room temperature; 0.4% agarose, 0.5x TBE pH 8.0, 4 C; 50 uM DNA per bp/base (qualitative). Pulldown: 20 mM HEPES pH 7.5, 150 mM KCl, 10% glycerol, room temperature. Conditions: protein: recombinant;recombinant;recombinant, tags: MBP tag, TEV-cleaved;His6-MBP tag.

Series [4] has as its target T4, MEILB2 (22-338);BRME1MBD (Mus musculus;Mus musculus, UniProt Q9D4G2;Q6DIA7 22-338;540-578, |).
T4 sequence 1: T1 sequence 2
T4 sequence 2: T1 sequence 3
The series is described as above. Conditions: protein: recombinant;recombinant, tags: His6-MBP tag, TEV-cleaved;His6 tag, chain copies: 2;2, hairpin with 3' poly(dT) overhang.

The target of series [5] is T3, BRCA2MBD;MEILB2 (22-338);BRME1MBD. Description: EMSA; apparent Kd, Hill n = 4; 2:4:4 complex; 50 nM DNA; EMSA: 20 mM HEPES pH 7.5, 325 mM KCl, 60 min room temperature; 0.4% agarose, 0.5x TBE pH 8.0, 4 C; 50 uM DNA per bp/base (qualitative). Pulldown: 20 mM HEPES pH 7.5, 150 mM KCl, 10% glycerol, room temperature. To be noted: protein: recombinant;recombinant;recombinant, tags: MBP tag, TEV-cleaved;His6-MBP tag, chain copies: 2;4;4, label: FAM, blunt.

Series [6] addresses T4, MEILB2 (22-338);BRME1MBD. Description: EMSA; apparent Kd, Hill n = 3; 2:2 complex concentration; 50 nM DNA; EMSA: 20 mM HEPES pH 7.5, 325 mM KCl, 60 min room temperature; 0.4% agarose, 0.5x TBE pH 8.0, 4 C; 50 uM DNA per bp/base (qualitative). Pulldown: 20 mM HEPES pH 7.5, 150 mM KCl, 10% glycerol, room temperature. To be noted: protein: recombinant;recombinant, tags: His6-MBP tag, TEV-cleaved;His6 tag, chain copies: 2;2, label: FAM, blunt.

Series [7] has as its target T5, BRCA2MBD;MEILB2 K26E;BRME1MBD (Mus musculus;Mus musculus;Mus musculus, UniProt P97929;Q9D4G2;Q6DIA7 2232-2283;22-338;540-578, |K26E|).
T5 sequence 1: T1 sequence 1
T5 sequence 2: T1 sequence 2 with K5E
T5 sequence 3: T1 sequence 3
Description: EMSA; EMSA: 20 mM HEPES pH 7.5, 325 mM KCl, 60 min room temperature; 0.4% agarose, 0.5x TBE pH 8.0, 4 C; 50 uM DNA per bp/base (qualitative). Pulldown: 20 mM HEPES pH 7.5, 150 mM KCl, 10% glycerol, room temperature. To be noted: protein: recombinant;recombinant;recombinant, tags: MBP tag, TEV-cleaved;His6-MBP tag, chain copies: 2;4;4, blunt.

For series [8], the target named is T6, MEILB2 (22-338);BRME1MBD R540E R549E (Mus musculus;Mus musculus, UniProt Q9D4G2;Q6DIA7 22-338;540-578, |R540E;R549E).
T6 sequence 1: T1 sequence 2
T6 sequence 2: T1 sequence 3 with R1E, R10E
As to the kind of experiment: pull-down; 150 mM KCl; EMSA: 20 mM HEPES pH 7.5, 325 mM KCl, 60 min room temperature; 0.4% agarose, 0.5x TBE pH 8.0, 4 C; 50 uM DNA per bp/base (qualitative). Pulldown: 20 mM HEPES pH 7.5, 150 mM KCl, 10% glycerol, room temperature. Conditions: protein: recombinant;recombinant, tags: His6-MBP tag, TEV-cleaved;His6 tag, chain copies: 2;2, blunt.

The target of series [9] is T4, MEILB2 (22-338);BRME1MBD. As to the kind of experiment: EMSA; apparent Kd, Hill n = 2; 2:2 complex concentration; 100 nM DNA; EMSA: 20 mM HEPES pH 7.5, 325 mM KCl, 60 min room temperature; 0.4% agarose, 0.5x TBE pH 8.0, 4 C; 50 uM DNA per bp/base (qualitative). Pulldown: 20 mM HEPES pH 7.5, 150 mM KCl, 10% glycerol, room temperature. Conditions: protein: recombinant;recombinant, tags: His6-MBP tag, TEV-cleaved;His6 tag, chain copies: 2;2, label: 5'-FAM.

Substitutions are numbered along the chain they refer to.

Regarding “ATGGAATCTAAAGAAGAATTTGTTAAAGTCAGAAAGAAGGACCTGGAACGGCTGACGACGGAAGTGATGCAAATACGGGACTTCTTACCCAGAATACTAAATGGGGAGTTACTGGAAAGTTTCCAGAAATTAAAGATGGTAGAAAAAAACCTGGAAAGAAAAGAACAAGAATTAGAGCAACTGATAATGGACCGTGAACACTTCAAAGCCCGGCTAGAAACTGCACAGGCAGACAGTGGGAGGGAGAAGAAGGAGAAGTTGGCTCTTCGACAGCAGCTGAATGAGGCAAAACAGCAGCTC (double strand) [FAM-300 bp dsDNA]”, the Kd was determined as 310 nM in series [1] and 300 nM in series [2].

B1: ssDNA-dsDNA junction (5' hairpin-poly(dT) 3') (structured_DNA)
DNA: CCGGCCCGCGGTGTCCGCGGGCCGGTTTTTTTTTTTTTTTTTTTTTTTTTTTTTTTTTTTTTTTTTTTTTTTTTT
Consider B1, for which the binding result in [3] (chain copies: 2;4;4, hairpin with 3' poly(dT) overhang) is given as “binds”; with MEILB2 (22-338);BRME1MBD [4], “binds”.

B2: FAM-75 bp dsDNA (dsDNA)
DNA 1: ATGGAATCTAAAGAAGAATTTGTTAAAGTCAGAAAGAAGGACCTGGAACGGCTGACGACGGAAGTGATGCAAATA
DNA 2: TATTTGCATCACTTCCGTCGTCAGCCGTTCCAGGTCCTTCTTTCTGACTTTAACAAATTCTTCTTTAGATTCCAT
With B2, the Kd in [5] came out at 400 ± 40 nM; in the series with MEILB2 (22-338);BRME1MBD [6], 520 ± 60 nM.

B3: 75 bp dsDNA (dsDNA)
DNA 1: B2 DNA 1
DNA 2: B2 DNA 2
Consider B3, for which the binding result in [7] is “no binding”.

B4: biotin-75 bp dsDNA (dsDNA)
DNA 1: B2 DNA 1
DNA 2: B2 DNA 2
For the molecule B4, in series [8], the binding result is listed as “no binding”.

B5: 75 base FAM-poly(dT) (ssDNA)
DNA: TTTTTTTTTTTTTTTTTTTTTTTTTTTTTTTTTTTTTTTTTTTTTTTTTTTTTTTTTTTTTTTTTTTTTTTTTTT
In the case of B5, the binding result in [3] (chain copies: 2;4;4, label: 5'-FAM) is recorded as “binds”. Besides, the Kd with MEILB2 (22-338);BRME1MBD [9] was determined as 870 ± 70 nM.
